The RNAGym collection of RNA variant scans (doi:10.1073/pnas.2313332121)
Variants at the floor of the assay were thinned out.

B1: TPR 5TU (parent)
chain: GGAUCUUCUCGAUCUAACAAAAAAGACAAAUCUGCCACAAAGCUUGAGAGCAUCUUCGGAUGCAGAGGCGGCAGCCUUCGGUGGCGCGAUAGCGCCAACGUUCUCAACUAUGACACGCAAAACGCGUGCUCCGUUGAAUGGAGUUUAUCAUG

Variants of: B1
Assay: polymerase ribozyme fitness, log enrichment relative to wild type (log ratio); higher = more active; in vitro selection for triplet polymerase activity
How it was run: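 A heterodimeric triplet polymerase ribozyme had each of its subunits mutagenized by PCR into a library, which was transcribed. One round of in vitro selection, done in triplicate, annealed each library with a biotinylated primer, its partner subunit and triplets, then incubated it frozen at −7 °C before gel excision of extended constructs, streptavidin-bead capture and RT-PCR. Fitness is the logarithm of genotype enrichment relative to wild-type enrichment, based on Illumina sequencing of inputs and outputs and inverse-variance-weighted replicate averages. A base-2 logarithm is used, and genotypes were kept only with ≥10 input reads and ≥1 read per output.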

Row | Variant | polymerase ribozyme fitness (log ratio)
1 | U13C C14U U77G G84U U145G U148A | ≤ -4.2
2 | A12U U55A C87U A119U U127C | -3.82
3 | U13A A91G C114U A120G | -4.09
4 | U13A A20U A28C C93U G136C A137U | ≤ -4.2
5 | U13A A30U U33G G46A G86A A91U A119G | ≤ -4.2
6 | A12U C27A A52C G71C C105U | ≤ -4.2
7 | U13A C85U A107U C125A G126C | ≤ -4.2
8 | A12U G48A C96A | -2.05
9 | A12U C85A U139G | -0.992
10 | A12U | -0.161
11 | A12U A52C G84A A98G | -2.65
12 | U13A G62A A142G | -2.22
13 | A12U G46C C69U | -3.08
14 | U13A U55A A89C G128U | -3.92
15 | U13A G58A C87U C105A C108U G124A U145A | ≤ -4.2
16 | A12G C69G A89U C96G U104A | -2.98
17 | A12G G88A U109C A142C | -4.12
18 | A12U A19C C95U C105A | -1.03
19 | U13A U61A C85U | -2.01
20 | A12G C51G A52C C63G | ≤ -4.2
21 | U13C A91U A120U | -3.86
22 | A12U G84C | -2.67
23 | A12U G84U | -1.97
24 | A12U G42C C51U C93U C123A G124U | ≤ -4.2

Row | Variant | polymerase ribozyme fitness (log ratio)
25 | U13C A39C U56A C95U G124A | -3.63
26 | U13A C36A G50A C79U C96A | ≤ -4.2
27 | U13C A52G U102C C118G | -3.18
28 | A12G C96A U134C A138G G141C | -3.97
29 | A12U C116G | -0.634
30 | A12U U15C A49C G88C C123U G143C | ≤ -4.2
31 | A12G U56A A60U G65U A91U C96G A120U | ≤ -4.2
32 | A12G G25C A122G G136A | -3.16
33 | A12G U56G C85G | -2.2
34 | U13C A16G A19C A28U C38U U55G A73C U77C C95G | ≤ -4.2
35 | A12G A41C A47C C72A C85U G133A A150U | ≤ -4.2
36 | A12G C87G G88U C96U C105A C108G C116U | ≤ -4.2
37 | U13A A19U A37C U45A A49C C51U C76U G94A G133U U134A G140U U148A | ≤ -4.2
38 | U13A C69A A120C | -2.74
39 | U13A G34U A49C G140A A142U | ≤ -4.2
40 | U13C C35A A91U C95A U104C C131G | ≤ -4.2
41 | U13A C32G A37U A52G G94A G128A U146G | ≤ -4.2
42 | A12U C54U G86C | -3.04
43 | A12G A91G A106G | -2.04
44 | A12U G67U G84A A110U | ≤ -4.2
45 | A12G C14G A22C A37C G88C G143C | ≤ -4.2
46 | A12U C76G C85U C103A G126C U145G | ≤ -4.2
47 | A12G A60G C93U | -0.294
48 | U13A C32U G67C C85A C105U G140A | ≤ -4.2

Row | Variant | polymerase ribozyme fitness (log ratio)
49 | A12U C18G G92C | -2.01
50 | A12U C38U G83U | -0.788
51 | A12G C35A C95U A106U | ≤ -4.2
52 | A12G C14G C18U U31A U56G U101A | -2.32
53 | A12U U55A G59U A60G G94A | -0.00322
54 | A12U G86A U101G | -0.714
55 | A12U A110G | -3.35
56 | A12G A39U G42C C57A G59C C79A U134A | ≤ -4.2
57 | A12G C93U | -1.21
58 | A12G C93A | -2.26
59 | A12U C14A A24U U56A C85U C99U G141A | ≤ -4.2
60 | A12U U45A U55G A66G U78C G88U C95G A137U | ≤ -4.2
61 | A12U G84C A142G | -3.93
62 | A12G U45G C69G A91C A115G G133A G143U | ≤ -4.2
63 | A12U C87A A113U A115C U148A | ≤ -4.2
64 | U13A A29U U44A C72G C96U A97U | ≤ -4.2
65 | A12G C79U G86C A120G C125U | ≤ -4.2
66 | A12U U15C U56A G92A A150G | -1.16
67 | A12U G42A C85U C99G | ≤ -4.2
68 | A12U A19G U82C G83A A119U | -4.07
69 | A12U A20C G86U G100U U151A | ≤ -4.2
70 | A12U A40U C85U U145C | -1.21
71 | A12U A26C C36U | -3.95
72 | A12G A52C C93U A98U G124A | -2

Row | Variant | polymerase ribozyme fitness (log ratio)
73 | A12U A24C C63G C85U C87A G94C A107G G126A A137G G141U | ≤ -4.2
74 | U13C A17C G67C U77G A89C A120C | ≤ -4.2
75 | A12G U15C A37G U44A U56A C69U C87U | ≤ -4.2
76 | U13A C85U U135A | -1.44
77 | U13A A26U C76U U146A | -3.35
78 | U13A A16C A91G | -2.83
79 | A12G C116G | 0.204
80 | A12U C14A C85G U145C | -3.7
81 | A12G A49C G74A C96U U102G G112U C125U | ≤ -4.2
82 | A12U A17U A28C C43G C103G | ≤ -4.2
83 | A12U G80U G84C A97G U134C | ≤ -4.2
84 | A12G A47C G58C C69A C93A U144C | -3.84
85 | A12U A28U U44G C93A U102A | ≤ -4.2
86 | A12G U53A G68A A107U | ≤ -4.2
87 | A12U C87G | -4.2
88 | A12U C87A | -4.15
89 | A12U G71A A107C | ≤ -4.2
90 | A12G C57G G59A C96U U127G | -3.86
91 | A12U A22G A29C G42U C87U C93A | ≤ -4.2
92 | A12G C75U C93U U144C | -0.389
93 | A12U A21U A39C G92A U109G A137G | ≤ -4.2
94 | U13A A52U A73G C85A U134G | ≤ -4.2
95 | A12G C85U C118G C125A | -0.473
96 | U13C C27U G50C G92C | -4.02

Row | Variant | polymerase ribozyme fitness (log ratio)
97 | U13A A52G U56A C75U U78A C87U C93A G136C C149A | ≤ -4.2
98 | U13A C38U | -0.321
99 | A12G C87U | -0.54
100 | A12G C87G | -3.83
101 | A12U A21U C38A A106U C116A A119G | -3.18
102 | A12G U77A C96A A98G | ≤ -4.2
103 | A12G A52U C76U C93U A120U | -2.12
104 | A12G C95U | 0.599
105 | A12U U55G A60U G83C A137U G141U | ≤ -4.2
106 | A12G G80C G81C C118U U135A | -1.66
107 | U13A G25U C85G | -3.79
108 | U13A C51U C54A G86U C116U A120G | ≤ -4.2
109 | A12U C57G G65A | -3.18
110 | A12U G58A | -0.217
111 | A12U A16U A17U C27U A47U G48A C76G G86U U145A G152U | ≤ -4.2
112 | A12U C54U U134A U145G | -3.56
113 | A12G A41U C85U U101G C105A G140U G152U | -4.09
114 | A12U A20G U56A C75G A121G | ≤ -4.2
115 | A12G C85A | -1.31
116 | A12U A20U G81A C87A C96A U102C C125U | ≤ -4.2
117 | A12G U55A U61G C125G | -3.62
118 | A12U C18U A19G U56G A60U C76G C108U C114G | ≤ -4.2
119 | A12G G84A G143A A147G | -3.25
120 | A12G C51U | 0.193

Row | Variant | polymerase ribozyme fitness (log ratio)
121 | A12U U31C C32U A40U C57G A73G C75A G88A G152A | ≤ -4.2
122 | A12G U13A U31A C57A G65A C85G | ≤ -4.2
123 | A12G C54U U61A C72A C96U A98U C99A A142C | ≤ -4.2
124 | A12G U45G A49U A60G U61G A107U U127G | ≤ -4.2
125 | A12U A21C G70C G84U C132A G136A A142U | ≤ -4.2
126 | A12U C105G | -2.43
127 | A12G C75G C93U C108U A110C | ≤ -4.2
128 | U13A A52G G68C G80A U82G C95G C105U C114A U145G | ≤ -4.2
129 | A12U C87U A97U | -0.917
130 | A12U A39U A150C | ≤ -4.2
131 | A12G A40C A41G U56A U82G C99A A113C C125U | ≤ -4.2
132 | A12G U78C U139G | -1.31
133 | U13A G94C | -1.19
134 | U13C C14G A66G A73G C95U A110G | ≤ -4.2
135 | U13C C38G U53A U82G G92A C105G C114U G128C U151C | ≤ -4.2
136 | U13A G46U G59A A91G C95U G117A | ≤ -4.2
137 | A12U C85U A97G C116U | -1.53
138 | A12U U56G A91G | -2.61
139 | U13A C57G C96A | -1.81
140 | A12U C63A U78G C95U | ≤ -4.2
141 | A12U U55G A142C | -1.46
142 | A12U A22U C27U A40G C69A U78A G94A A115C A119U G124A | ≤ -4.2
143 | A12U A16C A28G C38U A41U G86A A150G | ≤ -4.2
144 | A12G C14U | -0.925

Row | Variant | polymerase ribozyme fitness (log ratio)
145 | A12U C35G G46A C57G A60C G92U C108G G143A A147G | ≤ -4.2
146 | A12G U13A A19C G92C C99U G124C U148G G152U | ≤ -4.2
147 | A12U A28C C57U G68A G92C G126U | ≤ -4.2
148 | U13C C14U C54A G92A | ≤ -4.2
149 | A12U A41C G83C C118G G133U | ≤ -4.2
150 | A12U U61G C93U G94A U144G | -2.83
151 | A12G C54G C116U | -0.574
152 | A12U C14U A21U A49G C75G C116U A121C U146G U151G | ≤ -4.2
153 | A12U C14U G50C A60G G74U C85U | ≤ -4.2
154 | A12G G48C U56A G70A G83U | ≤ -4.2
155 | A12G C14U G50A U53A C95U C99A C116U A150U | -4.15
156 | U13A U55G C85U A121G | -1.11
157 | U13C A26C A52C | -3.55
158 | A12G U145A | 1.33
159 | A12U U82G | -1.49
160 | U13C A22U A24U U53A A98U | -1.6
161 | A12G C14G A97U | -2.49
162 | A12U C36G G86A A110C U139A | -4.11
163 | A12U A49C U53A C85U C118G U151G | ≤ -4.2
164 | A12G C54U C69G U145G | -4.06
165 | U13C A19G U45G C93A A106U | -2.34
166 | A12G C57U U61A G68A G70C C87U C96A G133A U148A | ≤ -4.2
167 | A12U A23C C54U C116G A147C U151A | ≤ -4.2
